The target in assay [1] is gH/gL/gO trimer of HCMV TB40-BAC4 (human cytomegalovirus, strain TB40/E (TB40-BAC4)).
The target of assay [2] is PDGF-BB (UniProt P01127).
In assay [3] the target is PDGF-BB (UniProt P01127). The source holds these as a separate data set.
Assay [4] deals with gH/gL/gO trimer of HCMV TB40-BAC4 (human cytomegalovirus, strain TB40/E (TB40-BAC4)). The source holds these as a separate data set.
Assay [5] shares this target. This is another data set of the same source.

PDGF-BB, sequence (P01127 82-190): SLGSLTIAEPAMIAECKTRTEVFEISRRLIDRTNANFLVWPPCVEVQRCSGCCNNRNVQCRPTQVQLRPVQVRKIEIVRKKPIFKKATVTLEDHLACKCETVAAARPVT
PDGFRα-Fc delN204-Y206, sequence (P16234 other isoform, or with tags, fused parts or gaps, stated change not applied): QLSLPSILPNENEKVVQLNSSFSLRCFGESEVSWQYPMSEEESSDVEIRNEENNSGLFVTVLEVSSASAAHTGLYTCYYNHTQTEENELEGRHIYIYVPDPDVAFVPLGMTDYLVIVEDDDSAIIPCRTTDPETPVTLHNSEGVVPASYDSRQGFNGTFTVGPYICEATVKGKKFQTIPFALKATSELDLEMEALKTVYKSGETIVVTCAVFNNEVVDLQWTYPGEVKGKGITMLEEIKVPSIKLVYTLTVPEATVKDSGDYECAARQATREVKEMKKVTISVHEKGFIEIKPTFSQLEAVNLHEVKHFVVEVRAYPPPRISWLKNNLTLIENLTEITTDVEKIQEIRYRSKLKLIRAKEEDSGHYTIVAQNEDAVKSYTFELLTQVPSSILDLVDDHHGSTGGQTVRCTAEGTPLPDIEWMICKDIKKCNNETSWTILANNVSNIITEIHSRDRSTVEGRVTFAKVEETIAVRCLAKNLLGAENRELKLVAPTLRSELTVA
PDGFRα-Fc delQ294-E298, sequence (P16234 other isoform, or with tags, fused parts or gaps, stated change not applied): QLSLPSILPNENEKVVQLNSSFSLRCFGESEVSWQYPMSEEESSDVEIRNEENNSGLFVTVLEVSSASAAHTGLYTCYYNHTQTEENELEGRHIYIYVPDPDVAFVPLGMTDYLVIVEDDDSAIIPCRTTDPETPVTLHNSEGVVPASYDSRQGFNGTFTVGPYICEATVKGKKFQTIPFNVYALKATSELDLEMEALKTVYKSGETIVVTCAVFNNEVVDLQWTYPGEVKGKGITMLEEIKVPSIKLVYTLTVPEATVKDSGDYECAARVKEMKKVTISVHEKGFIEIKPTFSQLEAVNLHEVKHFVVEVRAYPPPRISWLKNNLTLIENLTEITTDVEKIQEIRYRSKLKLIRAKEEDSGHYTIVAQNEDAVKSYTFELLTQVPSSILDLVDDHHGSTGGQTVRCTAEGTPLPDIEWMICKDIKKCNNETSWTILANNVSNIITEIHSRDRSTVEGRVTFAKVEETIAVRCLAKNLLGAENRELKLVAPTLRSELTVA
PDGFRα-Fc delM133-I139, sequence (P16234 other isoform, or with tags, fused parts or gaps, stated change not applied): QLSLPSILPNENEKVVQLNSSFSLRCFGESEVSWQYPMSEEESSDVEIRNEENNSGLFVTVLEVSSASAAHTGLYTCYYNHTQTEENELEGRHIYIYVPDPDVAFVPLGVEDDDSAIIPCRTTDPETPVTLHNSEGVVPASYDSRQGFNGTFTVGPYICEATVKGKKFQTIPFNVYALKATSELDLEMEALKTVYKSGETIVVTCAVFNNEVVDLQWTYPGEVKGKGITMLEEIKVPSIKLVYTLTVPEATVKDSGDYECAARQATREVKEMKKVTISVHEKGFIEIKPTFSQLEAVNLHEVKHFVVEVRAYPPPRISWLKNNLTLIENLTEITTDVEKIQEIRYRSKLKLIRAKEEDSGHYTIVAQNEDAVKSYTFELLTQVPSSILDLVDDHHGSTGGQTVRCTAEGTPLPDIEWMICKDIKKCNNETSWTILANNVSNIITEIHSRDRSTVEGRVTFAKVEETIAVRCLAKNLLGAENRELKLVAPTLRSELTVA

For the substance “PDGFRα-Fc E298A (from UniProt P16234-1 24-528) (Fc fusion)”, the inhibition of HCMV TB40-BAC4-IE-GLuc infection of fibroblasts (Gaussia luciferase read-out), against wild type (fold increase of the inhibitory effect) in assay [1] came to 3.

In the assay with PDGF-BB [2], “PDGFRα-Fc I139A (from UniProt P16234-1 24-528) (Fc fusion)” displayed a reduction of Akt phosphorylation induced by 50 ng/ml PDGF-BB in fibroblasts, phospho-Akt immunoblot, 4,000 ng/ml PDGFRα-Fc of 20%. Also, in assay [1], the inhibition of HCMV TB40-BAC4-IE-GLuc infection of fibroblasts (Gaussia luciferase read-out), against wild type (fold decrease of the efficiency) was 4. The reduction of p-Akt signal induced by 6 ng/ml PDGF-BB in fibroblasts, quantitative immunoblot, 4000 ng/ml PDGFRα-Fc with PDGF-BB [3] worked out at 80%.

In turn, “PDGFRα-Fc I139L (from UniProt P16234-1 24-528) (Fc fusion)” gave an HCMV inhibition EC50 (TB40-BAC4-IE-GLuc, fibroblasts, immediate-early antigen staining) in assay [4] of 6.6 ng/mL. Same read-out and setting: to “PDGFRα-Fc I139V (from UniProt P16234-1 24-528) (Fc fusion)” belongs 9.5 ng/mL. For “PDGFRα-Fc Q294A (from UniProt P16234-1 24-528) (Fc fusion)”, in assay [1], the inhibition of HCMV TB40-BAC4-IE-GLuc infection of fibroblasts (Gaussia luciferase read-out), against wild type (fold increase of the inhibitory effect) is 3. Regarding “PDGFRα-Fc T296A (from UniProt P16234-1 24-528) (Fc fusion)”, the inhibition of HCMV TB40-BAC4-IE-GLuc infection of fibroblasts (Gaussia luciferase read-out), against wild type (fold increase of the inhibitory effect) in assay [1] stood at 3. In the case of “PDGFRα-Fc Y206A (from UniProt P16234-1 24-528) (Fc fusion)”, the reduction of Akt phosphorylation induced by 50 ng/ml PDGF-BB in fibroblasts, phospho-Akt immunoblot, 4,000 ng/ml PDGFRα-Fc with PDGF-BB [2] was 60%. For the same substance, the inhibition of HCMV TB40-BAC4-IE-GLuc infection of fibroblasts (Gaussia luciferase read-out), against wild type (fold decrease of the efficiency) in assay [1] was determined as 4. “PDGFRα-Fc Y206F (from UniProt P16234-1 24-528) (Fc fusion)”: the HCMV inhibition EC50 (TB40-BAC4-IE-GLuc, fibroblasts, immediate-early antigen staining) in assay [4] was determined as 5.9 ng/mL. In the case of “PDGFRα-Fc delM133-I139 (from UniProt P16234-1 24-528) (Fc fusion)”, the inhibition of HCMV TB40-BAC4-IE-GLuc infection of fibroblasts (Gaussia luciferase read-out), 4,000 to 1 ng/ml; EC50 against wild type (fold higher EC50 than wild type) in assay [5] was determined as 10. Turning to “PDGFRα-Fc delN204-Y206 (from UniProt P16234-1 24-528) (Fc fusion)”, the inhibition of HCMV TB40-BAC4-IE-GLuc infection of fibroblasts (Gaussia luciferase read-out), 4,000 to 1 ng/ml; EC50 against wild type (fold higher EC50 than wild type) in assay [5] was found to be 10. Take “PDGFRα-Fc delQ294-E298 (from UniProt P16234-1 24-528) (Fc fusion)”: the inhibition of HCMV TB40-BAC4-IE-GLuc infection of fibroblasts (Gaussia luciferase read-out), 4,000 to 1 ng/ml; EC50 against wild type (fold higher EC50 than wild type) in assay [5] turned out to be 10.

These data come from publication PMC8031885.
